Reference: patent US20240132578A1

What was measured:
Experiment in all cases: cell-based or functional assay
[1] = biological target: HIV-1 Env of isolate 92UG046 (pseudovirus) (HIV-1)
[2] = biological target: HIV-1 Env of isolate JRFL (HIV-1)
[3] = biological target: HIV-1 Env of isolate MGRM-AE-004 (subtype AE) (HIV-1)
[4] = biological target: HIV-1 Env of isolate MGRM-AG-008 (subtype AG) (HIV-1)
[5] = biological target: HIV-1 Env of isolate MGRM-C-004 (HIV-1)
[6] = biological target: HIV-1 Env of isolate MGRM-D-003 (pseudovirus) (HIV-1)
[7] = biological target: HIV-1 Env of isolate MGRM-D-008 (pseudovirus) (HIV-1)
[8] = biological target: HIV-1 Env of isolate MGRM-D-026 (HIV-1)
[9] = biological target: HIV-1 Env of isolate MGRM-F1-018 (HIV-1)
[10] = biological target: HIV-1 Env of pseudovirus isolate MGRM-C-012 (clade C) (HIV-1)
[11] = biological target: HIV-1 Env of pseudovirus isolate MGRM-C-023 (clade C) (HIV-1)
[12] = biological target: HIV-1 JR-CSF Env E466A (HIV-1 (isolate JR-CSF)) (UniProt P20871)
[13] = biological target: HIV-1 92UG024 envelope protein (Env) on pseudovirus (HIV-1)
[14] = biological target: HIV-1 MGRM-D-018 envelope protein (Env) on pseudovirus (HIV-1)
[15] = biological target: HIV-1 MGRM-A-010 Env (HIV-1)

Chain of 5329_C19 (PGT-136) (antibody) (VH): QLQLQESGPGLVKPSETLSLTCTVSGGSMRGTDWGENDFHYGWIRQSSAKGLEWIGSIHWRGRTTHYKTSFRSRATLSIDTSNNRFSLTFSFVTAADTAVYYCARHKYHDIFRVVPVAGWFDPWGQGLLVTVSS
Chain of 5329_C19 (PGT-136) (antibody) (VL): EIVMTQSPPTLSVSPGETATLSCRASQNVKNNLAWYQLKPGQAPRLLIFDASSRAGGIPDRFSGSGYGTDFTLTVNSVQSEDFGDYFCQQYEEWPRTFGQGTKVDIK
Chain of 5345_I01 (PGT-137) (antibody) (VH): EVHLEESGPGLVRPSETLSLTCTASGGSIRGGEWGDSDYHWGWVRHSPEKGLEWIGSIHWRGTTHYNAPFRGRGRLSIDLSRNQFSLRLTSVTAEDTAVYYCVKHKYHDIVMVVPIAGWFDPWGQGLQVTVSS
Chain of 5345_I01 (PGT-137) (antibody) (VL): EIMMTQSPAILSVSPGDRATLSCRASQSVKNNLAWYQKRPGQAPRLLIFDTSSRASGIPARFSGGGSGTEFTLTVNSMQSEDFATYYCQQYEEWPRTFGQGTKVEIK

Substance: 5114_A19 (PGT-128) (antibody)
- IC50 (µg/mL), pseudovirus neutralization [1]: > 50 µg/mL
- IC50 (µg/mL), pseudovirus neutralization [2]: 0.007 µg/mL
- IC50, pseudovirus neutralization [3]: > 50 µg/mL
- IC50, pseudovirus neutralization [4]: 0.668 µg/mL
- IC50 (µg/mL), pseudovirus neutralization [5]: 0.025 µg/mL
- IC50 (µg/mL), pseudovirus neutralization [6]: 0.019 µg/mL
- IC50 (µg/mL), pseudovirus neutralization [7]: 0.033 µg/mL
- IC50 (µg/mL), pseudovirus neutralization [8]: > 50 µg/mL
- IC50 (µg/mL), pseudovirus neutralization [9]: 0.023 µg/mL
- IC50, pseudovirus neutralization [10]: 0.058 µg/mL
- IC50, pseudovirus neutralization [11]: 0.026 µg/mL
- Fold IC50 increase relative to wild-type (pseudovirus neutralization) [12]: 0.6 fold

Substance: 5329_C19 (PGT-136) (antibody)
- IC50 (ug/mL), pseudovirus neutralization [13]: 0.0915 µg/mL
- IC50 (µg/mL), pseudovirus neutralization [1]: > 50 µg/mL
- IC50 (µg/mL), pseudovirus neutralization [2]: > 50 µg/mL
- IC50, pseudovirus neutralization [3]: > 50 µg/mL
- IC50, pseudovirus neutralization [4]: > 50 µg/mL
- IC50 (µg/mL), pseudovirus neutralization [5]: 0.034 µg/mL
- IC50 (µg/mL), pseudovirus neutralization [6]: > 50 µg/mL
- IC50 (µg/mL), pseudovirus neutralization [7]: > 50 µg/mL
- IC50 (µg/mL), pseudovirus neutralization [8]: > 50 µg/mL
- IC50 (µg/mL), pseudovirus neutralization [9]: > 50 µg/mL
- IC50, pseudovirus neutralization [10]: > 50 µg/mL
- IC50, pseudovirus neutralization [11]: 3.2 µg/mL
- IC50 (ug/mL), pseudovirus neutralization [14]: > 10 µg/mL

Substance: 5343_B08 (PGT-135) (antibody)
- IC50 (ug/mL), pseudovirus neutralization [13]: 0.0139 µg/mL
- IC50 (µg/mL), pseudovirus neutralization [1]: > 50 µg/mL
- IC50 (µg/mL), pseudovirus neutralization [2]: > 50 µg/mL
- IC50, pseudovirus neutralization [3]: > 50 µg/mL
- IC50, pseudovirus neutralization [4]: > 50 µg/mL
- IC50 (µg/mL), pseudovirus neutralization [5]: 0.046 µg/mL
- IC50 (µg/mL), pseudovirus neutralization [6]: > 50 µg/mL
- IC50 (µg/mL), pseudovirus neutralization [7]: > 50 µg/mL
- IC50 (µg/mL), pseudovirus neutralization [8]: > 50 µg/mL
- IC50 (µg/mL), pseudovirus neutralization [9]: > 50 µg/mL
- IC50, pseudovirus neutralization [10]: 0.017 µg/mL
- IC50, pseudovirus neutralization [11]: 0.051 µg/mL
- Fold IC50 increase relative to wild-type (pseudovirus neutralization) [12]: 0.5 fold
- IC50 (ug/mL), pseudovirus neutralization [14]: 0.0433 µg/mL

Substance: 5147_N06 (PGT-130) (antibody)
- IC50 (ug/mL), pseudovirus neutralization [13]: > 10 µg/mL
- IC50 (µg/mL), pseudovirus neutralization [1]: > 50 µg/mL
- IC50 (µg/mL), pseudovirus neutralization [2]: 0.046 µg/mL
- IC50, pseudovirus neutralization [3]: 2.43 µg/mL
- IC50, pseudovirus neutralization [4]: > 50 µg/mL
- IC50 (µg/mL), pseudovirus neutralization [5]: 2.76 µg/mL
- IC50 (µg/mL), pseudovirus neutralization [6]: 0.651 µg/mL
- IC50 (µg/mL), pseudovirus neutralization [7]: > 50 µg/mL
- IC50 (µg/mL), pseudovirus neutralization [8]: > 50 µg/mL
- IC50 (µg/mL), pseudovirus neutralization [9]: > 50 µg/mL
- IC50, pseudovirus neutralization [10]: > 50 µg/mL
- IC50, pseudovirus neutralization [11]: 0.151 µg/mL
- Fold IC50 increase relative to wild-type (pseudovirus neutralization) [12]: 1.7 fold
- IC50, pseudovirus neutralization [15]: 0.0054 µg/mL
- IC50 (ug/mL), pseudovirus neutralization [14]: 0.0378 µg/mL

Substance: 5136_H01 (PGT-131) (antibody)
- IC50 (µg/mL), pseudovirus neutralization [1]: > 50 µg/mL
- IC50 (µg/mL), pseudovirus neutralization [2]: 0.454 µg/mL
- IC50, pseudovirus neutralization [3]: > 50 µg/mL
- IC50, pseudovirus neutralization [4]: > 50 µg/mL
- IC50 (µg/mL), pseudovirus neutralization [5]: 3.71 µg/mL
- IC50 (µg/mL), pseudovirus neutralization [6]: 19.6 µg/mL
- IC50 (µg/mL), pseudovirus neutralization [7]: > 50 µg/mL
- IC50 (µg/mL), pseudovirus neutralization [8]: > 50 µg/mL
- IC50 (µg/mL), pseudovirus neutralization [9]: > 50 µg/mL
- IC50, pseudovirus neutralization [10]: > 50 µg/mL
- IC50, pseudovirus neutralization [11]: 0.143 µg/mL
- Fold IC50 increase relative to wild-type (pseudovirus neutralization) [12]: 1.7 fold

Substance: 5345_I01 (PGT-137) (antibody)
- IC50 (µg/mL), pseudovirus neutralization [1]: > 50 µg/mL
- IC50 (µg/mL), pseudovirus neutralization [2]: > 50 µg/mL
- IC50, pseudovirus neutralization [3]: > 50 µg/mL
- IC50, pseudovirus neutralization [4]: > 50 µg/mL
- IC50 (µg/mL), pseudovirus neutralization [5]: 0.026 µg/mL
- IC50 (µg/mL), pseudovirus neutralization [6]: > 50 µg/mL
- IC50 (µg/mL), pseudovirus neutralization [7]: > 50 µg/mL
- IC50 (µg/mL), pseudovirus neutralization [8]: > 50 µg/mL
- IC50 (µg/mL), pseudovirus neutralization [9]: > 50 µg/mL
- IC50, pseudovirus neutralization [10]: 0.102 µg/mL
- IC50, pseudovirus neutralization [11]: 0.23 µg/mL
